Target: T1, CI-M6P/IGF2R domains 11-13 (Homo sapiens, UniProt P11717)
T1 chain: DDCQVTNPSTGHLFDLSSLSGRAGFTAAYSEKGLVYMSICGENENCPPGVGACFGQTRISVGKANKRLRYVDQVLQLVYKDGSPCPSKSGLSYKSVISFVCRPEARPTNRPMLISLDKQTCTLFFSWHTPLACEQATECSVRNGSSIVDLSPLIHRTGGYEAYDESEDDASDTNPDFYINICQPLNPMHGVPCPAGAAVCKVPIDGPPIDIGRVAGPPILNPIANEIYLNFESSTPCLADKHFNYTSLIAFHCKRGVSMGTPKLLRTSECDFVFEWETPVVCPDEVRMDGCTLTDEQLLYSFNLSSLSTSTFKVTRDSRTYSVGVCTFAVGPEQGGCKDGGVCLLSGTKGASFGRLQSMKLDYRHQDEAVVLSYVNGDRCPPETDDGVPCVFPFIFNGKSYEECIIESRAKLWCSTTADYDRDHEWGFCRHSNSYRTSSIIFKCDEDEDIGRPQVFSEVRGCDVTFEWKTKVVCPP
Assay: competitive ELISA (biotinylated IGF2)

B1: IGF2 peptide (des1-6) 7-67 (protein)
chain: KSMLVLLTFLAFASCCIAAYRPSETLCGGELVDTLQFVCGDRGFYFSRPASRVSRRSRGIV
- IC50: ~5 nM

— publication PMC12603107 (2025)
